B1: Ankyrin-3, residues 4094 to 4171; numbered along this chain, Q12955 (parent)
chain: MAIVADHLGLSWTELARELNFSVDEINQIRVENPNSLISQSFMLLKKWVTRDGKNATTDALTSVLTKINRIDIVTLLE

Variants of: B1
Assay: abundance fitness (aPCA) (normalised: wild type 0, dead -1); higher = more abundant; growth selection in yeast, the domain comes from the species named
Conditions: Homo sapiens

Abundance fitness, by site and new letter:
D6: A -0.25, N -0.067, C -0.418, G -0.156, S -0.258, M -0.299, V -0.296, E 0.096, R -0.163, K 0.155, P -0.238, F -0.658, Y -0.342, I -0.755, L -0.352, W -0.517
L8: S -0.916, G -0.983, C -0.787, V -0.769, R -0.829, F -0.463, W -0.552, E -0.984, Y -0.63, K -0.696, A -1.07, P -1, M -0.574, Q -0.755
A16: N -0.793, L -0.996, H -0.601, R -0.893, V -0.531, G -0.257, T -0.841, Q -0.749, D -0.813, W -0.79, P -0.895, S -0.907
S11: Q -0.053, I -0.422, W -1.05, V -0.84, N 0.009, G -0.261, T -0.314, A -0.31, D 0.092, M -0.94, E -0.326, R -0.965, K -0.761, F -0.654, P -1.03, L -0.963, C -0.342
G9: V -0.551, S -0.535, A -0.499, N -0.047, T -1, Q -0.39, C -0.781, D -0.503, H -0.667, M -0.244, W -0.786, E -0.273, Y -0.924, P -0.868
V4: A -0.253, W -1.01, L -0.397, K -0.806, N -0.663, E -1.01, I -0.169, P -0.921, R -0.925, G -0.889, Q -0.659, F -0.789, S -0.766, M -0.963, T -0.291
M1: D -0.643, K -0.421, G -0.566, E -0.365, I -0.321, A -0.322, N -0.099, Y 0.23, H -0.587, C -0.198, R -0.265, V -0.151, T -0.801
R17: I -0.412, S -0.08, W -0.101, P -0.869, D -0.203, Q -0.273, E -0.074, A -0.033, N 0.231, F -0.108, T -0.037, Y -0.061, M -0.053, L -0.06, C -0.076, V -0.161, G -0.163, H -0.182, K 0.143
N20: R -0.18, M -0.113, Q -0.329, V -0.608, G -0.081, E -0.101, I -0.609, W -0.902, H -0.035, Y -0.348, A -0.162, K -0.169, L -0.191, D 0.093, F -0.196, C -0.348, P -1
L19: R -0.79, I -0.333, C -0.793, S -1.05, G -1.01, M -0.33, T -0.927, W -0.494, H -0.694, P -0.855, Q -0.781, V -0.651, A -0.591
F21: C -1, W -0.978, Y -0.358, I -0.665, N -0.57, M -0.561, E -0.997, P -0.708, G -0.7, D -0.949, S -0.893, H -0.842, A -0.842, T -0.869, V -0.81, Q -0.694
E18: W -0.825
